Reference: the MegaScale stability set (Tsuboyama et al. 2023)

B1: 5KPH (parent)
chain: EEKRQVKQVAKEKLLEQSPNSKVQVRRVQKQGNTIRVELELRTNGKKENYTVEVERQGNTWTVKRITRT

Variants of: B1
Experiment: folding stability dG (cDNA display proteolysis); higher = more stable
Conditions: PBS, room temperature

| Variant | folding stability dG |
| --- | --- |
| EEKRQVKQVAKEKLLEQSGNSKVQVRRVQKQGNTIRVELELRTNGKKENYTVEVERQGNTWTVKRITRT [P19G] | 2.7 kcal/mol |
| EEKRQVKQVAKEKLLEQHPNSKVQVRRVQKQGNTIRVELELRTNGKKENYTVEVERQGNTWTVKRITRT [S18H] | 4.66 kcal/mol |
| EEKRQVKQVAKEKLLEQSPNSKVQVARVQKQGNTIRVELELRTNGKKENYTVEVERQGNTWTVKRITRT [R26A] | 3.09 kcal/mol |
| EEKRQVKEVAKEKLLEQSPNSKVQVRRVQKQGNTIRVELELRTNGKKENYTVEVERQGNTWTVKRITRT [Q8E] | 3.74 kcal/mol |
| EEKRQVKQVAKEKLLEQSPNSKVQVRRVQKFGNTIRVELELRTNGKKENYTVEVERQGNTWTVKRITRT [Q31F] | 4.21 kcal/mol |
| EEKRQVKQVWKEKLLEQSPNSKVQVRRVQKQGNTIRVELELRTNGKKENYTVEVERQGNTWTVKRITRT [A10W] | 2.27 kcal/mol |
| EEKRQVKQVNKEKLLEQSPNSKVQVRRVQKQGNTIRVELELRTNGKKENYTVEVERQGNTWTVKRITRT [A10N] | 1.88 kcal/mol |
| EEKRQVKQVAKEKLLEQSPNSKVQVRRVQKQGNTIRVELELRTNGKKLNYTVEVERQGNTWTVKRITRT [E48L] | 3.39 kcal/mol |
| EEKRQVKQVAKEKLLEQSPNSKVQVRRVQKQGNTIRVELELRTNGKKINYTVEVERQGNTWTVKRITRT [E48I] | 3.52 kcal/mol |
| EEKRQVKQVAKEKLLEQSPNSKVQVRRVQKQGNTIRVELELRTNGKKQNYTVEVERQGNTWTVKRITRT [E48Q] | 3.7 kcal/mol |
| EEKRQVKQVAKEKLLEQSPNSKVQVRRVQKQGNTIRVELELRTNGKKGNYTVEVERQGNTWTVKRITRT [E48G] | 2.67 kcal/mol |
| EEKRQVKQVAKEKLLEQSPWSKVQVRRVQKQGNTIRVELELRTNGKKENYTVEVERQGNTWTVKRITRT [N20W] | 2.38 kcal/mol |
| EEKRQVKQVAKEKLLEQSPNSKVQVRRVQKQGNTIRVELELRTNGKKESYTVEVERQGNTWTVKRITRT [N49S] | 3.86 kcal/mol |
| EEKRQVKQVAKEKLLEQSPNSKVQVRRAQKQGNTIRVELELRTNGKKENYTVEVERQGNTWTVKRITRT [V28A] | 3.15 kcal/mol |
| EEKRQVKQVAKEKLLEQSPNSKVQVRPVQKQGNTIRVELELRTNGKKENYTVEVERQGNTWTVKRITRT [R27P] | 1.38 kcal/mol |
| EEKRQVKQVAKEKLLEQSPNSKVQVRRVQKQGNTIRVELELRTNGKKENYTVEVERQGNTWTIKRITRT [V63I] | 3.47 kcal/mol |
| EEKRQVKQVAKEKLLEQSPNSKVQVRRVQKQGNTIRVELELRTNGKKENYTVEVERQGNTWTHKRITRT [V63H] | 1.18 kcal/mol |
| EEKRQVKQVAKEKLLEQSPNSKVQVRRVQKQGNTIRVELELRTNGKKENYTVEVERQGNTWTRKRITRT [V63R] | 0.762 kcal/mol |
| EEKRQVKQVAKEKLLEQSPNSKVQVRRVQKQGNTIKVELELRTNGKKENYTVEVERQGNTWTVKRITRT [R36K] | 4.23 kcal/mol |
| EEKRQVKQVAKEKLLEQSPNSKVQVRRVQKQGNTIWVELELRTNGKKENYTVEVERQGNTWTVKRITRT [R36W] | 4.21 kcal/mol |
| EEKRQVKQVAKEKLLEQSPNSKVQVRRVQKQGNTIRVELELRFNGKKENYTVEVERQGNTWTVKRITRT [T43F] | 3.87 kcal/mol |
| EEKRQVKQVAKEKLLEQSPNSKVQVRRVQKQGNTIRVELELRMNGKKENYTVEVERQGNTWTVKRITRT [T43M] | 3.68 kcal/mol |
| EEKRQVKQVAKEKLMEQSPNSKVQVRRVQKQGNTIRVELELRTNGKKENYTVEVERQGNTWTVKRITRT [L15M] | 3.7 kcal/mol |
| EEKRAVKQVAKEKLLEQSPNSKVQVRRVQKQGNTIRVELELRTNGKKENYTVEVERQGNTWTVKRITRT [Q5A] | 3.93 kcal/mol |
| EEKRVVKQVAKEKLLEQSPNSKVQVRRVQKQGNTIRVELELRTNGKKENYTVEVERQGNTWTVKRITRT [Q5V] | 3.73 kcal/mol |
| EEKRRVKQVAKEKLLEQSPNSKVQVRRVQKQGNTIRVELELRTNGKKENYTVEVERQGNTWTVKRITRT [Q5R] | 4.19 kcal/mol |

| Variant | folding stability dG |
| --- | --- |
| EEKRQVKQVAKEKLLEQSPNSKVQVRRVQKQGNTIRVELTLRTNGKKENYTVEVERQGNTWTVKRITRT [E40T] | 4.12 kcal/mol |
| EEKRQVKQVAKEKLLEQSPNSKVQVRRVQKQGNTIRVELSLRTNGKKENYTVEVERQGNTWTVKRITRT [E40S] | 3.73 kcal/mol |
| EEKRQVKQVAKEKLLEQSPNSKMQVRRVQKQGNTIRVELELRTNGKKENYTVEVERQGNTWTVKRITRT [V23M] | 3.08 kcal/mol |
| EEKRQVKQVAKEKLLEQSPNSKYQVRRVQKQGNTIRVELELRTNGKKENYTVEVERQGNTWTVKRITRT [V23Y] | 1.94 kcal/mol |
| IEKRQVKQVAKEKLLEQSPNSKVQVRRVQKQGNTIRVELELRTNGKKENYTVEVERQGNTWTVKRITRT [E1I] | 2.88 kcal/mol |
| REKRQVKQVAKEKLLEQSPNSKVQVRRVQKQGNTIRVELELRTNGKKENYTVEVERQGNTWTVKRITRT [E1R] | 3.25 kcal/mol |
| EEKRQVKQVAKEKLLEQSPNSKVQVRRVQKQGNTIRVELELRTNGKKENYTVEVERQGNTWTVKRITAT [R68A] | 3.4 kcal/mol |
| EEKRQVKQVAKEKLLEQSPNSKVQVRRVQKQGNTIRVELELRTNGKKENYTVEVERQGNTWTVKRITIT [R68I] | 3.67 kcal/mol |
| EEKRQVKQVAKEKLLEQSPNSKVQVRRVQKQGNTDRVELELRTNGKKENYTVEVERQGNTWTVKRITRT [I35D] | 1.2 kcal/mol |
| EEKTQVKQVAKEKLLEQSPNSKVQVRRVQKQGNTIRVELELRTNGKKENYTVEVERQGNTWTVKRITRT [R4T] | 3.69 kcal/mol |
| EEKRQVKQVAKEKLLEQSPNSKVQVRRVQKQGNTIRVELELRTNGKKENYTVEVIRQGNTWTVKRITRT [E55I] | 4.11 kcal/mol |
| EEKRQVKQVAKEKLLEQSPNSKVQGRRVQKQGNTIRVELELRTNGKKENYTVEVERQGNTWTVKRITRT [V25G] | 1.64 kcal/mol |
| EEKRQVKQVAKEKLLEQSPNSKVQERRVQKQGNTIRVELELRTNGKKENYTVEVERQGNTWTVKRITRT [V25E] | 1.74 kcal/mol |
| EEKRQVKQVAKEKLLEQSPNSKVQVRRVQKQGNTIRVELELRTNGKKENYTVEVERQGNTWTVKRIWRT [T67W] | 4.45 kcal/mol |
| EEKRQVKQVAKEKLLEQSPNSKVQVRRVQKQGNTIRVELELRTNGKKENYTVEVERQGNTWTVKRINRT [T67N] | 3.32 kcal/mol |
| EEKRQVKQVAKEKLLEQSPNSKVNVRRVQKQGNTIRVELELRTNGKKENYTVEVERQGNTWTVKRITRT [Q24N] | 3.77 kcal/mol |
| EEKRQVKQVAKEKLLEQSPNSKVQVRRVQKQGNTIRVELELRTNGKKENYTVGVERQGNTWTVKRITRT [E53G] | 2.14 kcal/mol |
| EEKRQVKQVAKEKLLEQSPNSKVQVRRVQKQGNTIRVELELRTNGKKENYTVNVERQGNTWTVKRITRT [E53N] | 2.78 kcal/mol |
| EEKRQVKQVAKEKLLEQSPNSKVQVRRVQKQGNTIRVELELRTNGKKENYTVPVERQGNTWTVKRITRT [E53P] | -0.812 kcal/mol |
| EEKRQVKQVAKEKLLEQSPNSKVQVRRVQKQGNTIRVELELRTNGKKENYTVSVERQGNTWTVKRITRT [E53S] | 3.33 kcal/mol |
| EEKRQDKQVAKEKLLEQSPNSKVQVRRVQKQGNTIRVELELRTNGKKENYTVEVERQGNTWTVKRITRT [V6D] | 1.95 kcal/mol |
| EEKRQAKQVAKEKLLEQSPNSKVQVRRVQKQGNTIRVELELRTNGKKENYTVEVERQGNTWTVKRITRT [V6A] | 4.84 kcal/mol |
| EEKRQVKQVAKEKLLEQSPNSVVQVRRVQKQGNTIRVELELRTNGKKENYTVEVERQGNTWTVKRITRT [K22V] | 4.01 kcal/mol |
| EEKRQVKQVAKEKLLEQSPNSGVQVRRVQKQGNTIRVELELRTNGKKENYTVEVERQGNTWTVKRITRT [K22G] | 3.2 kcal/mol |
| EEKRQVKQVAKEKLLEQSPNSKVQVRRVQKQGQTIRVELELRTNGKKENYTVEVERQGNTWTVKRITRT [N33Q] | 3.71 kcal/mol |
| EEKRQVKQVAKEKLLEQSPNSKVQVRRVQKQGHTIRVELELRTNGKKENYTVEVERQGNTWTVKRITRT [N33H] | 3.53 kcal/mol |

| Variant | folding stability dG |
| --- | --- |
| EEKRQVKQVAKEKLLEQSPNSKVQVRRVQKQGNTIRVELELRTNGKKENYTVEVEMQGNTWTVKRITRT [R56M] | 3.61 kcal/mol |
| EEKRQVKQVAKEKLLEQSPNSKVQVRRVQKQGNTIRVELELRTNGKKENYTVEVEWQGNTWTVKRITRT [R56W] | 4.17 kcal/mol |
| EEKRQVKQVAKEKLLEISPNSKVQVRRVQKQGNTIRVELELRTNGKKENYTVEVERQGNTWTVKRITRT [Q17I] | 4.39 kcal/mol |
| EEKRQVKQVAKEKLLEQSPNSKVQVRRVQKQGNTIRVELEPRTNGKKENYTVEVERQGNTWTVKRITRT [L41P] | 0.528 kcal/mol |
| EEKRQVKQVAKEKLLEQSPNSKVQVRRVQKQGNTIRVELEARTNGKKENYTVEVERQGNTWTVKRITRT [L41A] | 3.63 kcal/mol |
| EEKRQVKQVAKEKLLEQSPNSKVQVRRVQKQKNTIRVELELRTNGKKENYTVEVERQGNTWTVKRITRT [G32K] | 3.11 kcal/mol |
| EEKRQVKQVAKEKLLEQSPNSKVQVRRVQKQQNTIRVELELRTNGKKENYTVEVERQGNTWTVKRITRT [G32Q] | 3.04 kcal/mol |
| EEKRQVKQVAKEKLLEQSPNSKVQVRRVQKQLNTIRVELELRTNGKKENYTVEVERQGNTWTVKRITRT [G32L] | 3.09 kcal/mol |
| EEKRQVKQVAKEKLLEQSPNSKVQVRRVKKQGNTIRVELELRTNGKKENYTVEVERQGNTWTVKRITRT [Q29K] | 3.75 kcal/mol |
| EEKRQVKQVAKEKLLEQSPNSKVQVRRVIKQGNTIRVELELRTNGKKENYTVEVERQGNTWTVKRITRT [Q29I] | 4.24 kcal/mol |
| EEKRQVKQVAKEKLLEQSPNSKVQVRRVQKQGNTIRVELELRTMGKKENYTVEVERQGNTWTVKRITRT [N44M] | 3.84 kcal/mol |
| EQKRQVKQVAKEKLLEQSPNSKVQVRRVQKQGNTIRVELELRTNGKKENYTVEVERQGNTWTVKRITRT [E2Q] | 3.9 kcal/mol |
| EEKRQVKQVAKEKLLEQSPNSKVQVRRVQKQGNTIRVELELRTNGKKENLTVEVERQGNTWTVKRITRT [Y50L] | 2.84 kcal/mol |
| EEKRQVKQVAKEKLLEQSPNSKVQVRRVQKQGNTIRVELELRTNGKKENYTVEVERQGNTNTVKRITRT [W61N] | 1.83 kcal/mol |
| EEKRQVPQVAKEKLLEQSPNSKVQVRRVQKQGNTIRVELELRTNGKKENYTVEVERQGNTWTVKRITRT [K7P] | 2.66 kcal/mol |
| EEKRQVYQVAKEKLLEQSPNSKVQVRRVQKQGNTIRVELELRTNGKKENYTVEVERQGNTWTVKRITRT [K7Y] | 3.86 kcal/mol |
| EEKRQVTQVAKEKLLEQSPNSKVQVRRVQKQGNTIRVELELRTNGKKENYTVEVERQGNTWTVKRITRT [K7T] | 4.58 kcal/mol |
| EEKRQVKQVAKEKLLEQSPNSKVQVRRVQKQGNTIRVELELRTNGKCENYTVEVERQGNTWTVKRITRT [K47C] | 3.64 kcal/mol |
| EEKRQVKQVAKEKLLEQSPNSKVQVRRVQKQGNTIRVELELRTNGKDENYTVEVERQGNTWTVKRITRT [K47D] | 2.91 kcal/mol |
| EEKRQVKQVAKEKLLEQSPNSKVQVRRVQKQGNTIRVELELRTNGKNENYTVEVERQGNTWTVKRITRT [K47N] | 3.59 kcal/mol |
| EEKRQVKQVAKEKLLEQSPNSKVQVRRVQKQGNTIRVELELRTNGKKENYTTEVERQGNTWTVKRITRT [V52T] | 1.61 kcal/mol |
| EEKRQVKQVAKEALLEQSPNSKVQVRRVQKQGNTIRVELELRTNGKKENYTVEVERQGNTWTVKRITRT [K13A] | 4.53 kcal/mol |
| EEKRQVKQVAKEKLLEQSPNSKVQVRRVQKQGNTIRVELELRTNGKKENYTVEVERQGNTWTVKRITRQ [T69Q] | 3.9 kcal/mol |
| EEKRQVKQVAKEKLLEQSPNWKVQVRRVQKQGNTIRVELELRTNGKKENYTVEVERQGNTWTVKRITRT [S21W] | 2.89 kcal/mol |
| EEKRQVKQVAKEKWLEQSPNSKVQVRRVQKQGNTIRVELELRTNGKKENYTVEVERQGNTWTVKRITRT [L14W] | 2.29 kcal/mol |
| EEKRQVKQVAKEKPLEQSPNSKVQVRRVQKQGNTIRVELELRTNGKKENYTVEVERQGNTWTVKRITRT [L14P] | 1.78 kcal/mol |
